Experimental data from patent US20030198640A1 (Human Genome Sciences, published 2003).

T1: full length TNF-gamma-beta expressed on the cell surface (HEK293F stable transfectants); cells transfected … (human, UniProt O95150 1-251)
T1 construct: also called TNF-gamma-beta expressing cells
T1 sequence: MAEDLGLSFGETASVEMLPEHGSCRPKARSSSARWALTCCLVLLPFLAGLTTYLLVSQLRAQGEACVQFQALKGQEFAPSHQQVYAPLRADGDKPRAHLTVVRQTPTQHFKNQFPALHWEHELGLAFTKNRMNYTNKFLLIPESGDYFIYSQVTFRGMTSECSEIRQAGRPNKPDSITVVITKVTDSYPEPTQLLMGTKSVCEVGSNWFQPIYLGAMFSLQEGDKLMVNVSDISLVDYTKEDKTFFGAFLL

T2: DR3, full length, on cells (transfected 293T cells; naturally expressed on TF-1 cells and T cells) (human, UniProt Q93038 25-417)
T2 sequence: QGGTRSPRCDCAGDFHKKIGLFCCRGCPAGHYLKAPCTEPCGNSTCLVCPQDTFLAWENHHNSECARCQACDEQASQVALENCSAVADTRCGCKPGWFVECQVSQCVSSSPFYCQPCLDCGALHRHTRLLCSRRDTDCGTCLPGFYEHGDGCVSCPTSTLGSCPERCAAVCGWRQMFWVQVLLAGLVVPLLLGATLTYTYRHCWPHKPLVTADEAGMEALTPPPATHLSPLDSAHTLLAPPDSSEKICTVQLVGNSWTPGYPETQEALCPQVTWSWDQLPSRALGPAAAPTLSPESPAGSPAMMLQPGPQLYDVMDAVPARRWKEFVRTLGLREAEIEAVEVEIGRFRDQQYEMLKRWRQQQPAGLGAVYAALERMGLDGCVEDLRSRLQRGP

B1: DcR2 (Fc-fusion form of the extracellular domain) (Fc fusion, UniProt Q9UBN6 56-211, looked up)
chain: ATIPRQDEVPQQTVAPQQQRRSLKEEECPAGSHRSEYTGACNPCTEGVDYTIASNNLPSCLLCTVCKSGQTNKSSCTTTRDTVCQCEKGSFQDKNSPEMCRTCRTGCPRGMVKVSNCTPRSDIKCKNESAASSTGKTPAAEETVTTILGMLASPYH
notes: extracellular domain; not shown: Fc part
B2: AITR (Fc-fusion form of the extracellular domain) (Fc fusion, UniProt Q9Y5U5 26-162, looked up)
chain: QRPTGGPGCGPGRLLLGTGTDARCCRVHTTRCCRDYPGEECCSEWDCMCVQPEFHCGDPCCTTCRHHPCPPGQGVQSQGKFSFGFQCIDCASGTFSGGHEGHCKPWTDCTQFGFLTVFPGNKTHNAVCVPGSPPAEP
notes: as for B1
B3: OPG (Fc-fusion form) (Fc fusion, UniProt O00300 22-194, looked up)
chain: ETFPPKYLHYDEETSHQLLCDKCPPGTYLKQHCTAKWKTVCAPCPDHYYTDSWHTSDECLYCSPVCKELQYVKQECNRTHNRVCECKEGRYLEIEFCLKHRSCPPGFGVVQAGTPERNTVCKRCPDGFFSNETSSKAPCRKHTNCSVFGLLLTQKGNATHDNICSGNSESTQK
notes: as for B1
B4: DcR1 (Fc-fusion form of the extracellular domain) (Fc fusion, UniProt O14798 26-221, looked up)
chain: ATTARQEEVPQQTVAPQQQRHSFKGEECPAGSHRSEHTGACNPCTEGVDYTNASNNEPSCFPCTVCKSDQKHKSSCTMTRDTVCQCKEGTFRNENSPEMCRKCSRCPSGEVQVSNCTSWDDIQCVEEFGANATVETPAAEETMNTSPGTPAPAAEETMNTSPGTPAPAAEETMTTSPGTPAPAAEETMTTSPGTPA
notes: as for B1
B5: RANK (Fc-fusion form of the extracellular domain) (Fc fusion, UniProt Q9Y6Q6 30-212, looked up)
chain: IAPPCTSEKHYEHLGRCCNKCEPGKYMSSKCTTTSDSVCLPCGPDEYLDSWNEEDKCLLHKVCDTGKALVAVVAGNSTTPRRCACTAGYHWSQDCECCRRNTECAPGLGAQHPLQLNKDTVCKPCLAGYFSDAFSSTDKCRPWTNCTFLGKRVEHHGTEKSDAVCSSSLPARKPPNEPHVYLP
notes: as for B1
B6: OX40 (Fc-fusion form of the extracellular domain) (Fc fusion, UniProt P43489 29-214, looked up)
chain: LHCVGDTYPSNDRCCHECRPGNGMVSRCSRSQNTVCRPCGPGFYNDVVSSKPCKPCTWCNLRSGSERKQLCTATQDTVCRCRAGTQPLDSYKPGVDCAPCPPGHFSPGDNQACKPWTNCTLAGKHTLQPASNSSDAICEDRDPPATQPQETQGPPARPITVQPTEAWPRTSQGPSTRPVEVPGGRA
notes: as for B1
B7: TNFR1-Fc (Fc fusion, UniProt P19438 30-211, looked up)
chain: LVPHLGDREKRDSVCPQGKYIHPQNNSICCTKCHKGTYLYNDCPGPGQDTDCRECESGSFTASENHLRHCLSCSKCRKEMGQVEISSCTVDRDTVCGCRKNQYRHYWSENLFQCFNCSLCLNGTVHLSCQEKQNTVCTCHAGFFLRENECVSCSNCKKSLECTKLCLPQIENVKGTEDSGTT
notes: as for B1
B8: TNF-gamma-β (form used not stated) (ligand)
chain: LKGQEFAPSHQQVYAPLRADGDKPRAHLTVVRQTPTQHFKNQFPALHWEHELGLAFTKNRMNYTNKFLLIPESGDYFIYSQVTFRGMTSECSEIRQAGRPNKPDSITVVITKVTDSYPEPTQLLMGTKSVCEVGSNWFQPIYLGAMFSLQEGDKLMVNVSDISLVDYTKEDKTFFGAFLL

Biological target: T1, full length TNF-gamma-beta expressed on …
Experiment: flow cytometry on HEK293F cells expressing full length TNF-gamma-beta
Protocol: These cells were used to screen the Fc-fusion form of the extracellular domain of TNFR family members, including TNFR1, Fas, HveA, DR3, DR4, DR5, DR6, DcR1, DcR2, TR6, OPG, RANK, AITR, TAC1, CD40, and OX40. […] TR6 has been previously described as a decoy receptor (Pitti et al., Nature 396:699-703 (1998); Yu et al., J. Biol. Chem. 274:13733-6 (1999)) capable of competing with Fas and HveA for binding of FasL and LIGHT, respectively.
One million cells, in 0.1 ml of FACS buffer (PBS, 0.1% BSA, 0.1% NaN₃), were incubated with 0.1-1 microgram of protein or antibody at RT for 15 min. The cells were washed with 3 ml of FACS buffer, reacted with biotinylated primary antibody, and stained with PE-conjugated secondary antibody at RT for 15 min. Cells were then washed again, resuspended in 0.5 microgram/ml of propidium iodide, and live cells were gated and analyzed on a FACScan using the CellQuest software (BD Biosciences).

Row | binding result | Binder
1 | no binding | B1
2 | no binding | B2
3 | no binding | B3
4 | no binding | B4
5 | no binding | B5
6 | no binding | B6
7 | no binding | B7

Biological target: T2, DR3, full length, on cells (transfected …)
Experiment: cell-based or functional assay

Row | IFNγ production by anti-CD2 stimulated lamina propria mononuclear cells (ELISA) [fold] | Binder
8 | ≥ 2 | B8
